Experiment: label from the status in PepcDB records
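Further: failed if final PepcDB status was selected cloned or expressed and not failed if soluble or beyond.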

Sequence	protein production
MTKMNRETVITEALDLLDEVGLDGVSTRRLAKRLGVEQPSLYWYFRTKRDLLTAMAQAAMAPHAAEPLPEPGEDWHGWFLRNTRSFRRTLLARRDGARLHAGSRPTADLDRVRRKMDFLVASGVPERHAQMAMLAAGRFTVGCVLEEQAETGAGDTADLPADVPEIDHESAFEAGLALITDGLVRHVDAR	not failed
MLDISFGEFVLIGVVALVVLGPERLPTVARTVGALVARAQRFVANVKADMQQQANLQGLDSLRQDLQDAAHSFRGQLEAEVQQVRDAIDQNAADARALAEQAAEPFHEAERTIHGGLAPDAEAEAREAETHPAEPAPAAQADVPPRDENQLDLFDDLPPHRPPASQPSASQARE	failed
MTSSFTDYCKFFNRILSEVQETQEQAIIKGAHLVSEAVMNGGRFYVFGSGHSHMIAEEIYNRAGGLALVTAILPPELMLHERPNKSTYLERIEGLSKSYLKLHQVTNKDVIMIISNSGRNTVPVEMAIESRNIGAKVIAMTSMKHSQKVTSRHKSGKKLYEYADVVLDNGAPVGDAGFQIANSEIYSGATSDSIGCFLAQALIVETLHLLVQQGFEPPVFKSSNVDGADLYNDKIFNEYVKW	not failed
MTSLSSKRVAETLDKLHAEAEAADRALMAEMMAQAERSGETLKDLAAKFVDEERLNYRTTYQEHADHFLAISSAYGRFLYAIARARRATRIVEFGTSMGISTIYLAAALRDNGGGRLIGSEIEPTKVARARAHLEATGLADLVDIREGDALDTLKDVGCEVDILSIDGAFSLYLPVLKLIEPRLTPGAVILGENAFAQDYLDYVRAPANGYFSRSLDIDEGRGNEFTVRVG	failed
MSQFPNRAALWLNKLAPDAPLMSGLCPSVQVTDGQINGESVRFIAVVPDANNHYPRAAGGEVGLLEGWTLAKVVNETIAADADRPVKRPIVAVIDVPSQAYGRREEAFGIHQALAGAAGAYAKARLAGHPVIGLIVGKAMSGAFLAHGYQANRLIAFNDSGVLVHAMGKASAARITLRTVEALEKLAATIPPMAYDVSNYATLGLLSALLDISNPDAPDEGDLSLVSRTLRDAIADARTDTSLKCRLGAENRRSSQLVRDRMRASW	failed
MAKKTMGIHHITAIVGHPQENTDFYAGVLGLRLVKQTVNFDDPGTYHLYFGNEGGKPGTIITFFPWAGARQGVIGDGQVGVTSYVVPKGAMAFWEKRLEKFNVPYTKIERFGEQYVEFDDPHGLHLEIVEREEGEANTWTFGEVTPDVAIKGFGGATLLSEQPDKTADLLENIMGLERVGKEGDFVRYRSAGDIGNVIDLKLTPIGRGQMGAGTVHHIAWRANDDEDQLDWQRYIASHGYGVTPVRDRNYFNAIYFREHGEILFEIATDPPGFAHDETQETMGEKLMLPVQYEPHRTQIEQGLLPFEVRELD	not failed
MTRSEAQGRLTGLAPVSVIDIGSNSVRLVVYEGLSRAPAVLFNEKVLCGLGKGLALTGRMHEEGVTRALMALRRFHVLSEQAQAQKLYVLATAAAREAENGPDFIREAEAILGCEIEVLSGEKEALYSAYGVISGFYQPDGIAGDLGGGSLELIDIKDKSCGEGITLPLGGLRLSEQSDGSLEKAATIARKHVKSFAKLLAAGEGRTFYAVGGTWRNIAKLHMEISGYPLHMMQGYELPLEEMLNFLEEVIVSRDSKDPAWQAVSKNRRSLLPFGAIAMREVLRAMKPAKIAFSAQGVREGYLYSLLTEAERESDPLLVAADELAILRARSPEHARELADWSGRTFPVFGIDETEEESRYRQAACLLADISWRAHPDYRGLQALNIIAHSSFVAITHPGRAYIALANYYRFEGLNDNGTTEPLAAMAGERLQELGKLLGGLLRVVYLFSASMPGVVDHLKFRKSDNPDIDLEFVVPHDYCDFAGERLDGRLQQLAKLTGKRLAFVFE	not failed
MWDLNIKESTMTRNGKAKRPLPLAASVAMYAIAIILAAATAIGNVYANKYSDLISVYFNQPTSKVVSASNETTEHFTSDYASDDEREQALADMGTTILREGVTLLKNENGTLPLEATSKISVFGQDSVDSVYGGGGAGSIDTSKAQSLMDAFEQAGFDVNPTLTEFYTTGAGKDYRKTSTDAYGKGTFAVNEVPASAYTDDVKKSFASYNDAAIVVIGRSGSESQDLPTDKLASGYTYLQLDDDERAMLKMASDNFDKVVVLLNTQNPMELADLEDDSIDAVMWIGSLGQTGAGGVAEALNGTVNPSGHLPDTYAYDLKSAPSSANFGSYAIVNGTDRFTSSYMAYAEGIYVGYRYYETRYEDVVLGNEARSNYDYTKQVAYPFGYGLSYTDFTWSDYSMKKADGGFDISVKVTNTGKTAGKDVVQLYMQSPYTDYDKANGIEKASVELVGYAKTDTLKAGASETVTVHVDQESMKTYDSTGEGTYIMDAGDYYLAVGTDAHNALNNILAAKGKTTADGMTENGNAALAAKHTVHSQDNTTYAKSAATDEKISNQFDDVDLTTYDNSFTYLSRSDWTGSWPATYADGKWTASQKFLDALNIDTAQSEPEQKPTTDTDNPSYGKLNASMLMDADYADESWSALIGQMSVKELDQLVRIGGYATKSVSSTQLPATTDKDGPAGISSTLVGGESGMGYPSEIVIAATWNSDLAESFGKAIGEDSLALKVAVWYGPACNIHRNPYGGRAFEYFSEDSYLSGAMCAKVVAGAGSKGVVSTVKHFALNDQETNRMGGAIFANEQTIRQLYLRPFEMSVRDGGATAMMASMNRIGSRWTGGHKGLMTNTLRGEWGFNGFVVTDQASYSVFAYEDLREGLEAGTDLWLNTDAGLWKLPDDDMTDGVIANMQRAAHNISYAISRSNAMNGLSANSKIVKVTPLWRWGVYALDGVVTVGAVALIAIATLQILRRRKRDATVAAETGEPAANDGE	failed
MLLEGLLFVLAAGIFTAIVCGFGTLPFFFVDEISDRVTVALWGLAGGIMLFASLFGFIFEGLRDGTVFEVGAGLVVGVVVVVVADRIITGYEFEPRDIPDADFRKLVLIVGVLTVHSFPEGVALGVAFADLGIEGDLVLAGLAIPGLAIFITAAISIQNIPEGLAVAIPLHTYGIANWKIFGWAVFSSIPQPIGAGIAYVFVTTAREFLPFGFGFASGAMIFLVLHDIFPEGLDHGSDLPGHGRRELLVGIAVGVAIMLPVMLLTE	failed
MIPFPESRLAAQMSFVVEIDKLKTILRQTLLTDSSRRENDAEHSWHIATMAFLLAEYADEAVQIGRVARMLLIHDIVEIDAGDTFIHDEAGNEDKEERERKAAARLFGLLPPDQAAEYSALWQEYEARETADARFADALDRLQPLLHNFETEGGTWKPHGVTRAKVDKLLPRIEAGSKRLGAYARALVDEAVRRGYLAP	not failed
MRRLPTFGWALLVSIWAGLVGGAVIREPSVDLVPLYAVICQLLGLIAAYGTMRERSHILESVHRPGRVGMFIIILFFVMVPLTTVFALVLGDASVAGVATQWVSYLVGLGIALYVAFAGGFDRAWEKYT	failed
MNQLEFEQVSLYQIIVDSEKLAQEIYYQIEDEEISFYEAAYLYDVDAVRRQRCGYEGKVYRFSLPVNVATVIFRTSPKQLISPLQTEQGYHLFMVEEFIPAELEHHHHHH	failed
MLKKGNEMKAVIVYASVHHGNTKKIEEAMASVISADVIDVTRKIKPDLSGYDVIGFVSGVYFHTFHEGIKKCIEENMSSKGQKVFLVATCGLGYRDYTKGMKDTLAKKDVLCMGSFQCRGWDTYGIFGKIGGIAKKHPNDRDLKEAQEFVLKTVCKTNLEHHHHHH	not failed
MNQVEMTEFPVGKPEEALYGVASTPDGALWFTLAKGNAIGRLSPDGEVSRFPLPHADGQPTTITCGPDGRPWFTLSSANAVGRLSPDGALRMFELPRPASRPFGIAAGHDGCLWFAEMAGDRIGRITIDGDIEEYDLPVKGGYPSCMAAGRDGLMWFTLNQAGAIGSISATAAPRIFPLGAADAAPVGIASDAQGALWIAQAGNGAIARFDAGGRITEFPLHSRAARPHALAADAAGNLWFTEWGANRIGRISEAGDTAGYELAAPGSEPHGIAIDPHGCVWAALETGSLVRLQASPRD	failed
MPDIFQQEARGWLRCGAPPFAGAVAGLTTKHGGESKGPFASLNMGLHVGDDRTDVVNNRRRLAEWLAFPLERWVCCEQVHGADIQKVTKSDRGNGAQDFATAVPGVDGLYTDEAGVLLALCFADCVPIYFVAPSAGLVGLAHAGWRGTAGGIAGHMVWLWQTREHIAPSDIYVAIGPAIGPCCYTVDDRVVDSLRPTLPPESPLPWRETSPGQYALDLKEANRLQLLAAGVPNSHIYVSERCTSCEEALFFSHRRDRGTTGRMLAFIGRREEWT	not failed
MSLKTNFVKYERKDNKDLCEITLENDAGMAVKVLNYGATLEKVLLDGENMILSLNSPEDYSKERNFLGGTVGRIAGRVRAGQWKHGNEIHQLPLNDGDNHIHGGIGTDMHVWDFRPSCDSEHARVDLTLFDPDGNNDYPGNLKLHARYELDNENNLHYLLEAVSDKLTIFNPVNHTYFNLGERAEDLNLQMNADYYLPVDEAGLPDRGMAEVAGTAFDFRKTKRIGDALNSDDSQIKLRNGLDHPFILNGNNPAALLSSNKHRLIVKTNAPALVLYAGNHFNHTGIVNNIGQYDGITFEAQCPPAEGNDLGQITLLPFEKFKRTVDWKFEEGHHHHHH	not failed
MELQLAIDLLNKEDAAELANKVKDYVDIVEIGTPIIYNEGLPAVKHMADNISNVKVLADMKIMDAADYEVSQAIKFGADVITILGVAEDASIKAAIEEAHKNNKQLLVDMIAVQDLEKRAKELDEMGADYIAVHTGYDLQAEGQSPLESLRTVKSVIKNSKVAVAGGIKPDTIKDIVAESPDLVIVGGGIANADDPVEAAKQCRAAIEGK	failed
MRFVATGDWQLGMTAHYLSTEARPRFHRARLDAVKRIGEIAAEQSCDFVVVCGDVFESNQLDRAIISRTFEVLAAFTVPVVLLPGNHDPLDAASIYDSHAFTSRQPGHVHVLRDSEPFEVRPGVEIIGAPWFSKRPQGDLVAQATQNLAEAAPGKVRIIAGHGAVSTLDPDRESLATIDVDSLKTVLREDRAQFVALGDRHATYAVDERIWYSGAPEVTSRREDDPGNVLLVDIDAQSHASSVEKMHIGRWSYLVVEEDVNSDEDVSHLEQRLADIPDKDSTAVWLILRGTLSTAAKSRLDDILDHATDLFALVSLWERHTDIAVVAADEDFAGLGLSGYLQESLDELAETAAGEDLSASAAQDALGLLYRFARSGS	failed
KRRMELVGEYAGGITLIEDFAHHPTAIRLTLGAIAEHYPGRRIIACFEPRSNTTSRNIFQHELSECFGDAAIVVLGKVNRPERYAPEERLDAALLCRELKANGKRVFAAGSENYPEDIVRFIEAEQQPGDVVVLLSNGSFSGLKEMLAESFQKNS	failed
MAKVVKLEPISRETTVNTNDNLLSALLDSELHVLKECGGRGMCATCHVYIKEGMESLSPINKREQRTLEVITTANATSRLACQARVLGPGVVVELPSG	failed
MPFPPEVYVLLVAALPVVELRGAIPLGVALGLSPWESFLWALLGNLLVVPLALGLLPWAVGLATRMPLFARAWRALEVRVRLKGEAQVQRLGALGLFLFVAVPLPGTGAWSGAVLAVVLGVRRRYAFPALALGVVAAGLLVLLLTGGTVYGLNYLR	failed
MEVPMDCPGCENKVRKALEKMNGVHDVQIDIKQQRVTVTGSAEQKKVLKVARNVTKRDICLWSYPYHPESNGYNDRYFKKKFRKRINMSVNGEKVSSYNYHKHGYHGHEHGYYQERPYSGLINPSASSMFSEENPHFCSIM	failed
MNIRIAEELDVPALAELYQTTVLAVAPQHYSPEQTQMWASFASDTDNFQKFILNATTFIATDERGILGFAGITEDGHVTATYVRSDLIRQGIGSILMEKILEYAHLHKIRRLYAEASEFSLGLFQKFGFHIYDTEIVNRQGVLFRRYIVERS	failed
MSDVTVVAMVTNAYPVNEFQRSSGGTGKVRNIMLEDGTGSIRMALWDSDAETEISEGDVVKLIHGYAKESGEYMDLSTGRFGRLEHHHHHH	failed
